Test results taken from the nanobody polyreactivity screen of Harvey et al. (2022).

Test: yeast display, Sf9 membrane polyspecificity reagent, FACS + sequencing; frameworks hold sequencing errors
How it was run: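 Genes from sorted yeast were amplified by colony PCR, read by MiSeq 2 × 250 sequencing and filtered on CDR length. These cells carried a synthetic nanobody library in Saccharomyces cerevisiae BJ5465 and were sorted by FACS into low and high (top ~1%) gates on anti-HA and streptavidin fluorescence. Polyreactivity is labelled according to the gate of origin.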

Sequence | polyreactivity (PSR sort gate)
QVQLVESGGGLVQAGGSLRLSCAASGSTLRYYAMGWYRQAPGKERELVAAITYSAGRTSYADSVKGRFTISRDNAKNTVYLQMNSLKPEDTAVYYCATQWHSYLRRYDYWGQGTQVTVSS | low polyreactivity
QVQLVESGGGLVQAGGSLRLSCAASGSTLRYYAMGWYRQAPGKETEFVAAITASGVTTYYADSVKGRFTISRDNAKNTVYLQMNSLKPEDTAVYYCAARLYYNYRDRYNYWGQGTQVTVSS | high polyreactivity
QVQLVESGGGLVQAGGSLRLSCAASGSTLSLYAMGWYRQAPGKERELVAAITSSGGTYYADSVKGRFTISRDNAKNTVYLQMNGLKPEDTAVYYCAAQSYSRMDYWGQGTQVTVSS | high polyreactivity
QVQLVESGGGLVQAGGSLRLSCAASGSTLSLYAMGWYRQAPGKERELVAAITSSGGTYYADSVKGRFTISRDNAKNTVYLQMNSLKPEDTAVYYCNAYAKDARSYGYHRVNYWGQGTQVTVSS | high polyreactivity
QVQLVESGGGLVQAGGSLRLSCAASGSTLSTYVMGWYRQAPGKERELVAAITRRGGITYYADSVKGRFTISRDNAKNTVYLQMNSLKPEDTAVYYCNRLRYPHTFQTGGYWGQGTQVTVSS | high polyreactivity
QVQLVESGGGLVQAGGSLRLSCAASGSTLTWNDMGWYRPAPGKERELVAAIDVNDGSTYYADSVKGRFTISRDNAKNTVYLQMNSLKPEDTAVYYCAEPTDYTWLDSTLADDYWGQGTQVTVSS | low polyreactivity
QVQLVESGGGLVQAGGSLRLSCAASGSTLTYYAMGWYRQAPGKERELVAAISVSGGRTYYADSVKGRFTISRDNAKYTVYLQMNSLKPEDTAVYYCNALSSRAGGRGYDYWGQGTHVTVSS | high polyreactivity
QVQLVESGGGLVQAGGSLRLSCAASGSTLVIYAMGWYRQAPGKEREFVAAIRWSTGRTYYADSVKGRFTISRDNAKNTVYLQMNSLKPEDTAVYYCNASYWAPNSLPDGFRYDSWGQGTQVTVSS | high polyreactivity
QVQLVESGGGLVQAGGSLRLSCAASGSTLVKYAMGWYRQAPGKERELVAAISWSGGRTYYADSVKGRFTISRDNAKNTVYLQMNSLKPEDTAVYYCNAEFRGRPPSFAIKYDYWGQGTQVTVSS | high polyreactivity
QVQLVESGGGLVQAGGSLRLSCAASGSTLVLNAMGWYRPATGKERELVAAITISGDTTYYADSVKGRFTISRDNAKNTVYLQMNCLKPEDTAVYYCAAVVSTVDCMEYWGQGTQVTVSS | low polyreactivity
QVQLVESGGGLVQAGGSLRLSCAASGSTLVRYAMGWYRQAPGKERELVASISYSGGSTHYADSVKGRFTISRDNAKNTVYLQMNSLKPEDTAVYYCAARRYYSWGGHYYWGQGTQVTVSS | high polyreactivity
QVQLVESGGGLVQAGGSLRLSCAASGSTLVTNSMGWYRKAPGKERELVAAITFSGGTTYYADSVKGRFTISLDNAKNTVYLQMNSLKPEDTAVYYCAAEIWLEYVGYDYCGQGTQVTVSS | high polyreactivity
QVQLVESGGGLVQAGGSLRLSCAASGSTLVYYDMGWYRKAPGKERELVATITGTDSTYYADSVKGRFTISRDNAKNTVYLQMNSLKPEDTADCAADRAASRPDYDYWGQGTQVTVSS | low polyreactivity
QVQLVESGGGLVQAGGSLRLSCAASGSTLWYNAMGWYRQAPGKERELVATITAGGGSTYYADSVKGRFTISRDNAKNTVYLQMNSLKPEDTAVYYCATRRSRGPWYRNAYDYWGQGTQVTVSS | low polyreactivity
QVQLVESGGGLVQAGGSLRLSCAASGSTLYAYAMGWYRQAPGKERELVAAISFSTTSTYYADSVKGRFTISRDNAKNTVYLQMNSLKPEVTAVYYCAAEYWYYWEYEYWGQGTQVTVSS | high polyreactivity
QVQLVESGGGLVQAGGSLRLSCAASGSTLYAYAMGWYRQAPGKERELVAAISSRAVRTYYADSVKGRFTISRDNAKNTVYLQMNSMKPEDTAVYYCAAQRSYAYEYWGQGTQVTVSS | high polyreactivity
QVQLVESGGGLVQAGGSLRLSCAASGSTLYAYAMGWYRQAPGKERELVAGISSSGARTYYADSVKGRFTISRDNAKITVYLQMNSLKPEDTAVYYCAALAPVGTSKSYGYWGQGTQVTVSS | high polyreactivity
QVQLVESGGGLVQAGGSLRLSCAASGSTLYAYAMGWYRQAPGKERELVASIPAGGITHYADSVKGRVTISRDNANNTVYLHMISLKPEDTAVDYCNTVAYLRRFDKWGMNYWGQGTQVTVSS | low polyreactivity
QVQLVESGGGLVQAGGSLRLSCAASGSTLYAYVMGWYRQAPGKERELVATISWSGGRTYYADSVKGRFTISRDNAKNTVYLQMNSLKPEDTAVYYCNARRRYSYVSRKFDYWGQGTQVTVSS | high polyreactivity
QVQLVESGGGLVQAGGSLRLSCAASGSTLYFNAMGWYRQAPGKERELVATITSGGSTYYADSVKGRFTISRDNAKNTVYFQMNSLKPEDTAAYYCNADFGSYATNGLTPLYDYWGQGTQVTVSS | high polyreactivity
QVQLVESGGGLVQAGGSLRLSCAASGSTLYGNVMGWYRQAPGKESELVATINRGGSTNYADSVKGRFTISRDNAKNTVYLQMNSLKPEDTAVYYCAARAFAWYYLEDYWGQGTQVTVSS | low polyreactivity
QVQLVESGGGLVQAGGSLRLSCAASGSTLYIYVMGWYRQAPGKERELVAAIDSGDDTDYADSVKGRFTISRDNAKNTVYLQMNSLKPEVTAVYYCAAQKWYYPYYWGKGTQVTVSS | high polyreactivity

Sequence | polyreactivity (PSR sort gate)
QVQLVESGGGLVQAGGSLRLSCAASGSTLYRNAMGWYRQAPGKERELVAAISSSGGTTFYADSVKGRFTISGDNAKNTVYLQMNCLKPEDSAVYYCIRTARKLRTVHSSVVGLDYWGQGTQVTVSS | low polyreactivity
QVQLVESGGGLVQAGGSLRLSCAASGSTLYRYTMGWYRQAPGKERELVAAISSGGNTYYADSVKGRFTISRDNAKNTVYLQMNSLKPEDTAVYYCAAEDSVYIPYYDAFDYWGQGTQVTVSS | low polyreactivity
QVQLVESGGGLVQAGGSLRLSCAASGSTLYTYAMGWYRQAPGKERELVAAIRLSGGRTYYADSVKGRFTISRDNAQNTVYLQMNSLKPEDTAVYYCAVDWSYSRYDYWGQGTQVTVSS | high polyreactivity
QVQLVESGGGLVQAGGSLRLSCAASGSTLYTYAMGWYRQAPGKERELVATISWSGSSTYYADSVKGRFTISRDNAKNTVYLQMNSLKPEHTAVYYCAAPYHYWYRLDYWGQGTQVTVSS | high polyreactivity
QVQLVESGGGLVQAGGSLRLSCAASGSTLYYNAMGWFRQAPGKERELVARISRSGGSTYADSVKGRFTISRDNAKNTVYLQMNMLKRDDTAVYYCNADAYGTPEFTSYAVRYDYWGQGTQVTVSS | low polyreactivity
QVQLVESGGGLVQAGGSLRLSCAASGSTLYYNAMGWYRKAPGKERELVADITSGGSTSYADSVKGRFTISRDNAKNTVYLQMNSLKPEDTAVYYCAAVFYRRFDYWGQGTQVTVSS | low polyreactivity
QVQLVESGGGLVQAGGSLRLSCAASGSTLYYNAMGWYRQAPGKERELVAAITSGGSTSYADSVKGRFTISRDNAKNTVYLQMNRLKPDDTAVYYCAAVFYRRFDYWGQGTQVTVSS | low polyreactivity
QVQLVESGGGLVQAGGSLRLSCAASGSTQRFYAMGWYRQAPGKERELVAVISRGGSTYFADSVKGRFTISRDNAKNTVYLQMNSLKPEDTAVYYCAAYHRTSAARPIYDYWGQGTQVTVSS | low polyreactivity
QVQLVESGGGLVQAGGSLRLSCAASGSTQRGYARGWYRQAPGKERELVASISRRGGSTYYADSVKGRFTISRDNAKNTVYLQMNSLKPEDTAVDYCAATGRRGYGYGYWGQGTQVTVSS | high polyreactivity
QVQLVESGGGLVQAGGSLRLSCAASGSTRRYFKGWYRQAPGKERELVAVISRGGSTYYADSVKGRFTISGDNAKNTVYLQMNSLKPEDTAVYYCNVQPVIPRGGDYWGQGTQVTVSS | high polyreactivity
QVQLVESGGGLVQAGGSLRLSCAASGSTRYNAMGWYRQAPGKERELVASIRGNAGSTYYADSVKGRFTISRDNAKNTVYLQMNSLKPEDTAVYYCNARVLRYSCFHYDYCGQGTQVTVSS | high polyreactivity
QVQLVESGGGLVQAGGSLRLSCAASGSTSDINAMGWYRQAPGKERELVAAISSSGGRTYYADSVKGRFTISRDNAKNTVYLQMNSLKPEDTAVYYCAADTYTSAQHEKYDYWGQGTQVTVSS | low polyreactivity
QVQLVESGGGLVQAGGSLRLSCAASGSTSDYYAMGWYRQAPGKERELVAAISWSGGSTYYADSVKGRFTISRDNAKNTVYLQMISLKPEDNAVYYCAAQHYNFSGPFEYWGQGTQVTVSS | low polyreactivity
QVQLVESGGGLVQAGGSLRLSCAASGSTSERYDMGWYRQAPGKERELVATITWSGGDTHYADSVKGRFTISRDNAKNTVYLQMNSLKPVDTAVYYCAAEYTFVWGLWYDYWGQGTQVTVSS | low polyreactivity
QVQLVESGGGLVQAGGSLRLSCAASGSTSFTYMGWYRQAPGTEREVVAAIDESGGSTYYADSVKGRFTISRDNAKNTVYLQMNTLKPEDTAGYYCTRRYGRSYRWGNGYWGQGTQVTVSA | low polyreactivity
QVQLVESGGGLVQAGGSLRLSCAASGSTSGIYAMGWYRQAHGKERELVAAIDTSGGSTYADSVKGRFTISRDNAKNTVYLQMNSLKPEETAVYYCAKPFSSNSWSHGYWGQGTQVTVSS | low polyreactivity
QVQLVESGGGLVQAGGSLRLSCAASGSTSHYNAMGWYRQAPGKERELVASITWSGGSTYYADSVKGRFTISRDNAKNTVYLQMYSLKPEDTAVYYCNAQERRVRDYDYWGQGTQVTVSS | low polyreactivity
QVQLVESGGGLVQAGGSLRLSCAASGSTSLFYAMGWYRQAPGKERELVAGITNTARTYADSVKGRFTISRDNAKNTVYLQMKSLKPEDTAVYYCATGYNRWRPTFPFYYWGLGTQVTVSS | high polyreactivity
QVQLVESGGGLVQAGGSLRLSCAASGSTSLVNAMGWYRQAPGKERELVAAITRGGNTYYADSVKGRFTISRDNAKNTVYLQMNSLKPEDTAVYYCNVGQDALYRLEYWGQGTQVTVSS | low polyreactivity
QVQLVESGGGLVQAGGSLRLSCAASGSTSLVYAMGWYRQAPGKERELVAAISWSGGSTYYADSVKGRFTISRDNAKNTVYLQMKSLKPEDTAVYYCAAEYYGYWEYDYWGQGTQVTVSS | high polyreactivity
QVQLVESGGGLVQAGGSLRLSCAASGSTSPRNAMGWYRQAPGKERELVAAISSGGRTNYAVSVKGRFTISRDNAKNTVYLQMNSLKPEDTAVYYCAAAVQSTYWGQGTQVTVSS | low polyreactivity
